Test results taken from patent US20150344570A1 (published 2015).

B1: GpH7-A5/GpH7-B3 variant E333_12R/GpL16-k0 (antibody, human IgG1, kappa)
heavy 1: not shown
heavy 2: not shown
light: DIVMTQSPLSLPVTPGEPASISCQASESLVHSNRNTYLHWYLQKPGQSPQLLIYKVSNRFSGVPDRFSGSGSGTDFTLKISRVEAEDVGVYYCSQNTHVPPTFGQGTKVEIERTVAAPSVFIFPPSDEQLKSGTASVVCLLNNFYPREAKVQWKVDNALQSGNSQESVTEQDSKDSTYSLSSTLTLSKADYEKHKVYACEVTHQGLSSPVTKSFNRGEC
notes: change in the GpH7-B3 H chain only; also called He Ab
B2: GpH7-B3 variant S298_11K/GpL16-k0 (antibody, human IgG1, kappa)
heavy: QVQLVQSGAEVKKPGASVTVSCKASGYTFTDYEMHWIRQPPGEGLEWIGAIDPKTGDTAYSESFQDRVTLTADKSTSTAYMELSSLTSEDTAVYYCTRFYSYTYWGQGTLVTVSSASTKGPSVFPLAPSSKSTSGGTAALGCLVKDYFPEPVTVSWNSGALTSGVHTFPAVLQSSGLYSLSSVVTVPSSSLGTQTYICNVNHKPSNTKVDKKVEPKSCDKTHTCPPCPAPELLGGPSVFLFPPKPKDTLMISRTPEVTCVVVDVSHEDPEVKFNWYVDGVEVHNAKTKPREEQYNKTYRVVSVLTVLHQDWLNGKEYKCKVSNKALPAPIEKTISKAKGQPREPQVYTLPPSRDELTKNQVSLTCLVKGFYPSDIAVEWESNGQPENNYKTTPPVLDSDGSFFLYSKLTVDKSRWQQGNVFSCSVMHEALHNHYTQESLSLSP
light: B1 light
notes: also called Ho Ab S298_11K
B3: GpH7-B3 variant P271_12R/GpL16-k0 (antibody, human IgG1, kappa)
heavy: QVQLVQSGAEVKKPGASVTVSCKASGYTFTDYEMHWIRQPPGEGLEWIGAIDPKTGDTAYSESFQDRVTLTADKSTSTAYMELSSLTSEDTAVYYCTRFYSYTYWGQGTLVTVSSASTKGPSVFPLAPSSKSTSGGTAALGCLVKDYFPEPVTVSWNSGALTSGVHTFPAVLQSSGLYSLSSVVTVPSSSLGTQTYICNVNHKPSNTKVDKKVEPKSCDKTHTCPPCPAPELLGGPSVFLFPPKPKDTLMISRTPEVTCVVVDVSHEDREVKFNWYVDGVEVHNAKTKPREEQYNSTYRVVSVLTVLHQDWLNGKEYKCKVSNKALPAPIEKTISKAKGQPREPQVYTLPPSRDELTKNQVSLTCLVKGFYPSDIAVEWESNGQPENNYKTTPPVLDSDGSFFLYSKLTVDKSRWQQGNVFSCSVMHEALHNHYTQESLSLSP
light: B1 light
notes: also called Ho Ab P271_12R
B4: GpH7-A5/GpH7-B3 variant K334_01G/GpL16-k0 (antibody, human IgG1, kappa)
heavy 1: not shown
heavy 2: not shown
light: B1 light
notes: as for B1
B5: GpH7-B3 variant P271_07I/GpL16-k0 (antibody, human IgG1, kappa)
heavy: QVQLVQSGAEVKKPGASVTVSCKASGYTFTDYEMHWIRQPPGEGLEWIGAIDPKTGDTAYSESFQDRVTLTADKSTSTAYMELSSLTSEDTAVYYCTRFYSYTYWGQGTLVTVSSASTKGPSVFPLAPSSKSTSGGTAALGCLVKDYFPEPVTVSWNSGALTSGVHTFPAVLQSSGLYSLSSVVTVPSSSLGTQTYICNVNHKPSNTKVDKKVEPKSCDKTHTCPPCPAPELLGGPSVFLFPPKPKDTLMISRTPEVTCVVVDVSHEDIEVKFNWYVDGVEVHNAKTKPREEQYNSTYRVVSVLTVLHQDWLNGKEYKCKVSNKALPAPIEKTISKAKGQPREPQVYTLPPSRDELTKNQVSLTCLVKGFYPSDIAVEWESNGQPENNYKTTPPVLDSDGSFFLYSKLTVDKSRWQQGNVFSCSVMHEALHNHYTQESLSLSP
light: B1 light
notes: also called Ho Ab P271_07I
B6: GpH7-A5/GpH7-B3 variant P329_02A/GpL16-k0 (antibody, human IgG1, kappa)
heavy 1: not shown
heavy 2: not shown
light: B1 light
notes: as for B1
B7: GpH7-A5/GpH7-B3 variant P329_01G/GpL16-k0 (antibody, human IgG1, kappa)
heavy 1: not shown
heavy 2: not shown
light: B1 light
notes: as for B1
B8: GpH7-B3 variant Q295_04F/GpL16-k0 (antibody, human IgG1, kappa)
heavy: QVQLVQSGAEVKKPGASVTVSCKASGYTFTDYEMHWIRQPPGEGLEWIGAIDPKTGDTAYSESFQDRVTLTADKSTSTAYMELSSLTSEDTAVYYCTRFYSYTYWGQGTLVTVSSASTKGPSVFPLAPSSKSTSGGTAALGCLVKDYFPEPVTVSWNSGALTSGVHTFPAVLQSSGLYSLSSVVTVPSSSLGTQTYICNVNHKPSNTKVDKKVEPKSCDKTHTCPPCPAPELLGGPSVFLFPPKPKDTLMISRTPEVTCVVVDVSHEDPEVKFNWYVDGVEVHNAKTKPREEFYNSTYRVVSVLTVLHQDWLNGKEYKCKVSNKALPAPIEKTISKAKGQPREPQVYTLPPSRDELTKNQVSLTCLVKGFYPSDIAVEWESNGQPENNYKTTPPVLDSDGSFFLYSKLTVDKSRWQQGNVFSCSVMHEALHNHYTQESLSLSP
light: B1 light
notes: also called Ho Ab Q295_04F
B9: GpH7-A5/GpH7-B3 variant I332_12R/GpL16-k0 (antibody, human IgG1, kappa)
heavy 1: not shown
heavy 2: not shown
light: B1 light
notes: as for B1
B10: GpH7-B3 variant P271_11K/GpL16-k0 (antibody, human IgG1, kappa)
heavy: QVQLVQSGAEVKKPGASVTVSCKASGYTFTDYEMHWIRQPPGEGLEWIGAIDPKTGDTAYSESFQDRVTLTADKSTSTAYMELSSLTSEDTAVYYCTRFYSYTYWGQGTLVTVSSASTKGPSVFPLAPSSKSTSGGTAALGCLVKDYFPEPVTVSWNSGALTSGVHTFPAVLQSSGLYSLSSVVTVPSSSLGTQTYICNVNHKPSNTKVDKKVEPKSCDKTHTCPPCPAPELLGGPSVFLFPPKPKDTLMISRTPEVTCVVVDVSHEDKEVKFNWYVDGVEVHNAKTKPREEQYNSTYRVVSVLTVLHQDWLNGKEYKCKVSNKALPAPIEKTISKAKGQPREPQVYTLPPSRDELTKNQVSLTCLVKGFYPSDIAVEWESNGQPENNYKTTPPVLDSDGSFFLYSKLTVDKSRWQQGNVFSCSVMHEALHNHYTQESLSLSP
light: B1 light
notes: also called Ho Ab P271_11K
B11: GpH7-A5/GpH7-B3 variant S324_15Y/GpL16-k0 (antibody, human IgG1, kappa)
heavy 1: not shown
heavy 2: not shown
light: B1 light
notes: as for B1
B12: GpH7-A5/GpH7-B3 variant T335_05P/GpL16-k0 (antibody, human IgG1, kappa)
heavy 1: not shown
heavy 2: not shown
light: B1 light
notes: as for B1
B13: GpH7-A5/GpH7-B3 variant I336_01G/GpL16-k0 (antibody, human IgG1, kappa)
heavy 1: not shown
heavy 2: not shown
light: B1 light
notes: as for B1
B14: GpH7-A5/GpH7-B3 variant S324_20W/GpL16-k0 (antibody, human IgG1, kappa)
heavy 1: not shown
heavy 2: not shown
light: B1 light
notes: as for B1
B15: GpH7-A5/GpH7-B3 variant I336_03V/GpL16-k0 (antibody, human IgG1, kappa)
heavy 1: not shown
heavy 2: not shown
light: B1 light
notes: as for B1
B16: GpH7-B3 variant P271_04F/GpL16-k0 (antibody, human IgG1, kappa)
heavy: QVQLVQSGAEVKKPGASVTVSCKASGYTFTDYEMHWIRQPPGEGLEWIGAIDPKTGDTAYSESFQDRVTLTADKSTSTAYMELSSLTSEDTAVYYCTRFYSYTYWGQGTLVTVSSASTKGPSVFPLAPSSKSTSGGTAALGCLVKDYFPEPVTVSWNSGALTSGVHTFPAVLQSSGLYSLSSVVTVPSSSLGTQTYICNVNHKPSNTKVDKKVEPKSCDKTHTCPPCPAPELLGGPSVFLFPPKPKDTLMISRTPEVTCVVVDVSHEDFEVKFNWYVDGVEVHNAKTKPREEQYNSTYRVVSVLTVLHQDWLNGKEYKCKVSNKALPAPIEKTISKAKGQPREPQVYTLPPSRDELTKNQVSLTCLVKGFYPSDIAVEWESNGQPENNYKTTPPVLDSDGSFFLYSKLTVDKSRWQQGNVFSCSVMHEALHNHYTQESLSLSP
light: B1 light
notes: also called Ho Ab P271_04F
B17: GpH7-B3 variant P271_20W/GpL16-k0 (antibody, human IgG1, kappa)
heavy: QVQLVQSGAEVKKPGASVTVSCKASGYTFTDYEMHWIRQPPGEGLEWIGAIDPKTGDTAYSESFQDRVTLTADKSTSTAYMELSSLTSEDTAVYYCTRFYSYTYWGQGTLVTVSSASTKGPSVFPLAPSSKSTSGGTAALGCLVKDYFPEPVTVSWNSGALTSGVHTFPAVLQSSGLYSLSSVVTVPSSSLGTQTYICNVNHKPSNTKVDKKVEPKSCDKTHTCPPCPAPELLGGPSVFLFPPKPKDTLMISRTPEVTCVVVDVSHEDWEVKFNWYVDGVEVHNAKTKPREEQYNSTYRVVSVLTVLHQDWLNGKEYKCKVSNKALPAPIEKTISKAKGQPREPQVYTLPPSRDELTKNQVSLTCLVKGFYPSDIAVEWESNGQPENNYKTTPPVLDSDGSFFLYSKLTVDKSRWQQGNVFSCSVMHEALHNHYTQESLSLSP
light: B1 light
notes: also called Ho Ab P271_20W
B18: GpH7-B3 variant Q295_05P/GpL16-k0 (antibody, human IgG1, kappa)
heavy: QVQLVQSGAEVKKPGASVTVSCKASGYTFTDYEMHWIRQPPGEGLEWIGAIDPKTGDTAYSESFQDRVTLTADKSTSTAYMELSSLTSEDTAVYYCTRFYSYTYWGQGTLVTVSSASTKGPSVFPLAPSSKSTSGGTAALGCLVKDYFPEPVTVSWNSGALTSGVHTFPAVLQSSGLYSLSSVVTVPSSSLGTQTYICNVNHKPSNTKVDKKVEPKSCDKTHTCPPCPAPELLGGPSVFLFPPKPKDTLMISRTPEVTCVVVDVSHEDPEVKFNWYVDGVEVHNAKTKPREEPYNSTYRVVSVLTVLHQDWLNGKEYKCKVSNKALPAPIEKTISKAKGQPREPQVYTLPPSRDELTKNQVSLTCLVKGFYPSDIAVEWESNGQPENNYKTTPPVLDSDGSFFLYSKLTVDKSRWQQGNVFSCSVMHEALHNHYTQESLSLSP
light: B1 light
notes: also called Ho Ab Q295_05P
B19: GpH7-A5/GpH7-B3 variant K334_09D/GpL16-k0 (antibody, human IgG1, kappa)
heavy 1: not shown
heavy 2: not shown
light: B1 light
notes: as for B1
B20: GpH7-A5/GpH7-B3 variant S324_18N/GpL16-k0 (antibody, human IgG1, kappa)
heavy 1: not shown
heavy 2: not shown
light: B1 light
notes: as for B1
B21: GpH7-A5/GpH7-B3 variant S324_08L/GpL16-k0 (antibody, human IgG1, kappa)
heavy 1: not shown
heavy 2: not shown
light: B1 light
notes: as for B1
B22: GpH7-B3 variant Q295_02A/GpL16-k0 (antibody, human IgG1, kappa)
heavy: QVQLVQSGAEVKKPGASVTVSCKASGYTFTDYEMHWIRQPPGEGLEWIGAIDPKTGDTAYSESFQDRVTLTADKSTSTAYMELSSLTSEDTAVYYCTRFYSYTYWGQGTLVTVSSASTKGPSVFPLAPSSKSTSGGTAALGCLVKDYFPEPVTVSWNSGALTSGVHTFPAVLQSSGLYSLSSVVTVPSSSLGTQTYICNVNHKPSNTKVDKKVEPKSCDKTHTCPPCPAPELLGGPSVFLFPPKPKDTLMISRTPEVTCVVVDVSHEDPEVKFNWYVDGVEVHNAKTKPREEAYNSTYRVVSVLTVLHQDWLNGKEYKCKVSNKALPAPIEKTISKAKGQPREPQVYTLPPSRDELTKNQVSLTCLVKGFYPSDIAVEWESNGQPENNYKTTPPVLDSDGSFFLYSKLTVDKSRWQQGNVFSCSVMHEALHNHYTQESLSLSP
light: B1 light
notes: also called Ho Ab Q295_02A
B23: GpH7-A5/GpH7-B3 variant S324_11K/GpL16-k0 (antibody, human IgG1, kappa)
heavy 1: not shown
heavy 2: not shown
light: B1 light
notes: as for B1
B24: GpH7-A5/GpH7-B3 variant T335_06M/GpL16-k0 (antibody, human IgG1, kappa)
heavy 1: not shown
heavy 2: not shown
light: B1 light
notes: as for B1
B25: GpH7-A5/GpH7-B3 variant E333_13S/GpL16-k0 (antibody, human IgG1, kappa)
heavy 1: not shown
heavy 2: not shown
light: B1 light
notes: as for B1
B26: GpH7-A5/GpH7-B3 variant S324_14T/GpL16-k0 (antibody, human IgG1, kappa)
heavy 1: not shown
heavy 2: not shown
light: B1 light
notes: as for B1
B27: GpH7-B3 variant Q295_03V/GpL16-k0 (antibody, human IgG1, kappa)
heavy: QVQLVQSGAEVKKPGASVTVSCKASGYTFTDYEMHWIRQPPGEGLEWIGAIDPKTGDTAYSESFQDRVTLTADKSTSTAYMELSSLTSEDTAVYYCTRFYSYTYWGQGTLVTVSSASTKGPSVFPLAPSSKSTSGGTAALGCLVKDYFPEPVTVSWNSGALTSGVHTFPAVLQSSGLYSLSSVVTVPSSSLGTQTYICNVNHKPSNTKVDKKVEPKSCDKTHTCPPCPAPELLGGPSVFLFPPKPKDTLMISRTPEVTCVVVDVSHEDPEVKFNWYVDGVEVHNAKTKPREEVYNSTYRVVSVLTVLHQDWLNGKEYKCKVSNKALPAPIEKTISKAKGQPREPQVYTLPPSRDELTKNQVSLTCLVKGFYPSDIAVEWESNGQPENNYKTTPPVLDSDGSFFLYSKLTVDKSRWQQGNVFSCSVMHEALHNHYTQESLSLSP
light: B1 light
notes: also called Ho Ab Q295_03V
B28: GpH7-A5/GpH7-B3 variant S324_12R/GpL16-k0 (antibody, human IgG1, kappa)
heavy 1: not shown
heavy 2: not shown
light: B1 light
notes: as for B1
B29: GpH7-A5/GpH7-B3 variant E333_16H/GpL16-k0 (antibody, human IgG1, kappa)
heavy 1: not shown
heavy 2: not shown
light: B1 light
notes: as for B1
B30: GpH7-A5/GpH7-B3 variant S324_09D/GpL16-k0 (antibody, human IgG1, kappa)
heavy 1: not shown
heavy 2: not shown
light: B1 light
notes: as for B1
B31: GpH7-A5/GpH7-B3 variant T335_02A/GpL16-k0 (antibody, human IgG1, kappa)
heavy 1: not shown
heavy 2: not shown
light: B1 light
notes: as for B1
B32: GpH7-A5/GpH7-B3 variant T335_12R/GpL16-k0 (antibody, human IgG1, kappa)
heavy 1: not shown
heavy 2: not shown
light: B1 light
notes: as for B1
B33: GpH7-A5/GpH7-B3 variant T335_01G/GpL16-k0 (antibody, human IgG1, kappa)
heavy 1: not shown
heavy 2: not shown
light: B1 light
notes: as for B1
B34: GpH7-A5/GpH7-B3 variant S324_19Q/GpL16-k0 (antibody, human IgG1, kappa)
heavy 1: not shown
heavy 2: not shown
light: B1 light
notes: as for B1
B35: GpH7-A5/GpH7-B3 variant T335_11K/GpL16-k0 (antibody, human IgG1, kappa)
heavy 1: not shown
heavy 2: not shown
light: B1 light
notes: as for B1
B36: GpH7-A5/GpH7-B3 variant E333_14T/GpL16-k0 (antibody, human IgG1, kappa)
heavy 1: not shown
heavy 2: not shown
light: B1 light
notes: as for B1
B37: GpH7-A5/GpH7-B3 variant S324_16H/GpL16-k0 (antibody, human IgG1, kappa)
heavy 1: not shown
heavy 2: not shown
light: B1 light
notes: as for B1
B38: GpH7-B3 variant P271_13S/GpL16-k0 (antibody, human IgG1, kappa)
heavy: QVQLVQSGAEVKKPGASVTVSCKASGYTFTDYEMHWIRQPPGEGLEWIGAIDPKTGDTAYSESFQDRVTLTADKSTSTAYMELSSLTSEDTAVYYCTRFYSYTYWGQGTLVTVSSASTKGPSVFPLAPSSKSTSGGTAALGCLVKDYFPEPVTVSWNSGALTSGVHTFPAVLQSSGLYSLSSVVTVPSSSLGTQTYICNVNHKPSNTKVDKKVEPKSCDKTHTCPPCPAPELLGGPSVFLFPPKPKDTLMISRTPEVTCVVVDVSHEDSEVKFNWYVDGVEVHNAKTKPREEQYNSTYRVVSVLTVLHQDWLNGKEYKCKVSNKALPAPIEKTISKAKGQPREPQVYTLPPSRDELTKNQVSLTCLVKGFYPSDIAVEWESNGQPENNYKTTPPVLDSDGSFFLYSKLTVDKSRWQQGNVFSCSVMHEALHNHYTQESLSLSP
light: B1 light
notes: also called Ho Ab P271_13S
B39: GpH7-A5/GpH7-B3 variant S324_10E/GpL16-k0 (antibody, human IgG1, kappa)
heavy 1: not shown
heavy 2: not shown
light: B1 light
notes: as for B1
B40: GpH7-B3 variant P271_06M/GpL16-k0 (antibody, human IgG1, kappa)
heavy: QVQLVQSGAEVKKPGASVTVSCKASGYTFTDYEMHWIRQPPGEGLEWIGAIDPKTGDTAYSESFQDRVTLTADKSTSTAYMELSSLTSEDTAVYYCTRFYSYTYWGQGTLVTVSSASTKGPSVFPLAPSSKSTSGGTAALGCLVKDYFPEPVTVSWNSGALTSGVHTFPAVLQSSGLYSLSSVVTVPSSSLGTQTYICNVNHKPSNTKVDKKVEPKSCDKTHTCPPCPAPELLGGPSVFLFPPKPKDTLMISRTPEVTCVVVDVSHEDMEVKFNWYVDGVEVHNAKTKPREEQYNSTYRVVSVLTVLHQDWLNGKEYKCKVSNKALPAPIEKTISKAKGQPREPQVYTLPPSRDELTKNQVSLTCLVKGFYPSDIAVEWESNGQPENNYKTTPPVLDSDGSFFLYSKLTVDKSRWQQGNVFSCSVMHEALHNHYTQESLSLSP
light: B1 light
notes: also called Ho Ab P271_06M
B41: GpH7-A5/GpH7-B3 variant I336_02A/GpL16-k0 (antibody, human IgG1, kappa)
heavy 1: not shown
heavy 2: not shown
light: B1 light
notes: as for B1
B42: GpH7-A5/GpH7-B3 variant E333_15Y/GpL16-k0 (antibody, human IgG1, kappa)
heavy 1: not shown
heavy 2: not shown
light: B1 light
notes: as for B1

Key:
[1] = target: T1, FcγRIa extracellular domain with C-terminal His tag (human, UniProt P12314 16-292); test: SPR, binding relative to GpH7-A5/GpH7-B3/GpL16-k0 = 100
T1 construct: extracellular domain; soluble analyte in Biacore; also called FcgRI; not shown: His tag at the C terminus
T1 sequence (P12314 16-292): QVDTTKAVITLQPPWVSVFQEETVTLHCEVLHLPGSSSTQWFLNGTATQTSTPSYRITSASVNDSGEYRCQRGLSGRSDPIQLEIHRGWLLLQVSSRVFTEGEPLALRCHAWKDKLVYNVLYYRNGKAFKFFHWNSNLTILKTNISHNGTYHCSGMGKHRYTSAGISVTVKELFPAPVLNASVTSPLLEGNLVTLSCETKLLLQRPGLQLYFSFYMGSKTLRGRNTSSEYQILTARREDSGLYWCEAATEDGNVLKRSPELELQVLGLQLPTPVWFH

[2] = target: T2, FcγRIIb extracellular domain with C-terminal His tag (human, UniProt P31994 43-217); test: as above
T2 construct: extracellular domain; soluble analyte in Biacore; also called FcgRIIb; not shown: His tag at the C terminus
T2 sequence (looked up): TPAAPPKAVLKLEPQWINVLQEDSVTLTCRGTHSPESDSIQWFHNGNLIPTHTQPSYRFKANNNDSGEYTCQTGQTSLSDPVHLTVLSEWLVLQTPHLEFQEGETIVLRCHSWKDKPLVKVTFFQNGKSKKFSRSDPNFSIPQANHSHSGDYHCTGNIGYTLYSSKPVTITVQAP

[3] = target: T3, FcγRIa (human, UniProt P12314 16-292); test: SPR (Biacore); Ho Ab vs HoCon Ab GpH7-B3/GpL16-k0
T3 construct: extracellular domain; Soluble extracellular domain expressed in FreeStyle293 cells, used as analyte in Biacore; also called FcgRI; 1a; not shown: His tag attached to the C terminus
T3 sequence (P12314 16-292): as the sequence (P12314 16-292) above
Description: Analysis of interaction between objective antibody and the FcγR was carried out using Biacore T100 (GE Healthcare). HBS-EP+ (GE Healthcare) was used as the running buffer, and the measurement temperature was set to 25° C. Chips produced by immobilizing the antigen peptide by the amine coupling method to a Series S Sencor Chip CM5 (GE Healthcare), or alternatively, chips produced by allowing preliminarily biotinylated antigen peptides to interact with and immobilize onto a Series S Sensor Chip SA (certified) (GE Healthcare) were used. Antibodies of interest were captured onto an antigen peptide-immobilized chip, and allowed to interact to each FcγR diluted with running buffer. To regenerate and repeatedly use the chip, the antibodies captured on the chip were washed off by reacting 10 mM glycine-HCl, pH 1.5.

| Binder | He/Con_1a [1] | He/Con_2b [2] | Ho/Con_1a [3] |
| --- | --- | --- | --- |
| B1 | 102 % of control | 80.4 % of control |  |
| B2 |  |  | 90.4 relative binding, control = 100 |
| B3 |  |  | 101 relative binding, control = 100 |
| B4 | 104 % of control | 92.5 % of control |  |
| B5 |  |  | 102 relative binding, control = 100 |
| B6 | 102 % of control | 40.5 % of control |  |
| B7 | 101 % of control | 41.7 % of control |  |
| B8 |  |  | 100 relative binding, control = 100 |
| B9 | 100 % of control | 48.9 % of control |  |
| B10 |  |  | 101 relative binding, control = 100 |
| B11 | 114 % of control | 88.2 % of control |  |
| B12 | 106 % of control | 99.9 % of control |  |
| B13 | 109 % of control | 90.1 % of control |  |
| B14 | 114 % of control | 87.5 % of control |  |
| B15 | 105 % of control | 90.3 % of control |  |
| B16 |  |  | 100 relative binding, control = 100 |
| B17 |  |  | 102 relative binding, control = 100 |
| B18 |  |  | 101 relative binding, control = 100 |
| B19 | 106 % of control | 94.8 % of control |  |
| B20 | 116 % of control | 81.1 % of control |  |
| B21 | 103 % of control | 89.6 % of control |  |

| Binder | He/Con_1a [1] | He/Con_2b [2] | Ho/Con_1a [3] |
| --- | --- | --- | --- |
| B22 |  |  | 104 relative binding, control = 100 |
| B23 | 102 % of control | 68.6 % of control |  |
| B24 | 107 % of control | 99.4 % of control |  |
| B25 | 103 % of control | 81.8 % of control |  |
| B26 | 121 % of control | 88.4 % of control |  |
| B27 |  |  | 102 relative binding, control = 100 |
| B28 | 102 % of control | 63.1 % of control |  |
| B29 | 101 % of control | 83.3 % of control |  |
| B30 | 104 % of control | 85.8 % of control |  |
| B31 | 103 % of control | 94 % of control |  |
| B32 | 113 % of control | 91.9 % of control |  |
| B33 | 104 % of control | 96.7 % of control |  |
| B34 | 112 % of control | 66.8 % of control |  |
| B35 | 111 % of control | 91 % of control |  |
| B36 | 102 % of control | 86.1 % of control |  |
| B37 | 113 % of control | 83.5 % of control |  |
| B38 |  |  | 101 relative binding, control = 100 |
| B39 | 105 % of control | 77.4 % of control |  |
| B40 |  |  | 102 relative binding, control = 100 |
| B41 | 106 % of control | 84.9 % of control |  |
| B42 | 101 % of control | 94.4 % of control |  |
